Results from US20030104443A1, “AFAP sequences, polypeptides, antibodies and methods” (University of West Virginia, priority 2001, published 2003).

Legend:
[1] = system: actin filaments; assay: Low-speed cosedimentation assay (20,800×g), actin filament cross-linking; assay type: biochemical
Excerpt: (§1) Binding constants were derived from the sedimentation of rAFAP-110 by actin. Accordingly, rAFAP-110 in the pellet and supernatant correspond to the bound and free rAFAP-110, respectively. The sum of densities of rAFAP-110 bands in the supernatant and pellet corresponds to the total mass of rAFAP-110 in the sample. The data representing the bound rAFAP-110 as a function of free rAFAP-110 were fit by nonlinear least squares to both the Langmuir (B=BMAX/(1+Kd/F)) and […] 2 μM F-actin filaments and different concentrations of rAFAP-110 in 5 mM MgCl2, 1 mM EGTA, 2 mM ATP, and 50 mM KCl at 20,800×g for 30 min at 4° C. After the centrifugation, both supernatant and pellets were analyzed by SDS-PAGE gel. Confocal microscopy assays were performed as described (Ishikawa et al., 1998, J. Biol. Chem., 273:26991-26997). Briefly, 2 μM F-actin containing 10% rhodamine-phalloidin-labeled F-actin were mixed with different concentrations of rAFAP-110 or other purified recombinant proteins in 5 mM MgCl2, 1 mM EGTA, 2 mM ATP, and 50 mM KCl at RT for 30 min. After the incubation, the reactions were applied between glass slides and coverslips and observed under confocal microscopy (Zeiss, Oberkochen, Germany). Samples for negative staining were adsorbed to grids coated with nitrocellulose and stabilized with carbon (Ernest F. Fullam, Latham, N.Y.). Unbound protein was removed by successive washes with buffer and water before staining with 1% uranylacetate (Cooper and Pollard, 1982, Methods Enzymol., 85(PtB), 182-210; Pollard and Cooper, 1982, Methods Enzymol., 85(PtB), 211-233).
Actin filaments are unable to efficiently pellet at 20,800×g unless cross-linked to form heavier particles (either isotropic networked or bundled actin filaments; Cooper and Pollard, 1982, supra; Pollard and Cooper, 1982, supra; Meyer et al., 1990, J. Cell. Biol. 110:2013-2024; Wachsstock et al., 1993, Biophys. J., 65: 205-214; Rybakova et al., 1996, J. Cell. Biol., 135:661-672). […] The purified recombinant proteins were incubated with actin filaments and then were centrifuged at 20,800×g. Both supernatants (S) and pellets (P) were applied to SDS-PAGE gel, followed by Coomassie staining. 1, rAFAP-110 with actin filaments; 2, rAFAP-110^Δcterm with actin filaments; 3, rAFAP-110 only; 4, rAFAP-110^Δcterm only; 5, actin filaments only. FIG. 8B is a graph of cross-linked actin filaments versus free rAFAP-110. rAFAP-110 at 0.05,0.11,0.21,0.43, 0.86, and 2.14 μM was incubated with the 2 μM concentration of G-actin polymerized into actin filaments. After the incubation, the reactions were centrifuged at 20,800×g. Both supernatants and pellets were applied to SDS-PAGE gel, followed by the Western blot analysis to detect rAFAP-110 and Coomassie blue staining to detect actin, respectively. The data of cross-linked actin filaments and free rAFA-110 were gathered by scanning densitometry of SDS-PAGE gel analysis.

[2] = system: actin filaments; assay: Confocal microscopy of rhodamine-phalloidin-labeled actin filaments; assay type: biochemical
Excerpt: as §1
To further test AFAP-110's capability to cross-link actin filaments, we analyzed rhodamine-phalloidin-labeled actin filaments for cross-linking by confocal microscopy. In FIG. 9A, purified rAFAP-110 or rAFAP-110^Δcterm were incubated with rhodamine-phalloidin-labeled actin filaments. […] 1, actin filaments only; 2, rAFAP-110 with actin filaments; 3, rAFAP-110^Δcterm with actin filaments. FIG. 9B presents confocal microscopy images. Different concentrations of α-actinin (top two panels, low=0.0625 μM and high=1.25 μM) and rAFAP-110 (bottom two panels, low=0.106 μM and high=2.1 μM) were incubated with rhodamine-phalloidin-labeled actin filaments. […] Actin filaments labeled with rhodamine-phalloidin appeared uniformly fluorescent in the absence of an actin binding protein (FIG. 9A1). […] Electron microscopy was used to confirm rAFAP-110's ability to cross-link actin filaments.

[3] = system: F-actin; assay: Actin binding assay (high-speed copelleting, 150,000×g)
Method: G-actin was polymerized to F-actin at 5 mM Tris-HCl, pH 8.0, 0.2 mM CaCl2, 0.5 mM DTT, 5 mM MgCl2, and 2 mM ATP at room temperature (RT) for 1 h. Different concentrations of rAFAP-110 were incubated with 2 μM F-actin in 5 mM MgCl2, 1 mM EGTA, 2 mM ATP, 50 mM KCl at RT for 30 min. The reactions were centrifuged at 150,000×g for 1 h at 4° C., and then both pellets and supernatants were collected and analyzed by SDS-PAGE gel.
as §1
The purified rAFAP-110 was incubated with actin filaments. The negative staining image was taken at 16,000 magnification. Black arrows indicate rAFAP-110 aggregates; and white arrow indicates actin filaments. […] The electron micrographs indicate that rAFAP-110 binds to the sides of actin filaments, which was supported by the fact that one mole of actin in filaments bound up to 1.7 mol of rAFAP-110 (FIG. 7C). FIG. 7C is a graph of bound rAFAP-110 versus free rAFAP-110. rAFAP-110 at 0.18,0.29,0.70, 1.34,2.63,3.73,4.67, 5.11,5.34,5.48, and 5.66 μM was incubated with 2 μM concentration of G-actin polymerized into actin filaments and were then centrifuged at 150,000×g. Both supernatants (S) and pellets (P) were applied to SDS-PAGE gel, followed by Coomassie staining. Density of AFAP-110 determined by scanning densitometry was fit as described.

[4] = target: T1, recombinant PKCα (Homo sapiens, UniProt P17252); assay: In vitro PKC kinase assay; assay type: biochemical; details: 10 μg rAFAP-110, 0.5 μg PKCα, radiolabeled ATP; FIG. 10A
T1 construct: purchased CalBiochem
Method: PKC kinase assays were carried out according to Current Protocols in Molecular Biology (Carter, 1997). Briefly, 10 μg rAFAP-110 purified as mentioned above was incubated at 30° C. for 30 min with 0.5 μg recombinant PKCα in reaction buffer (20 mM Tris, pH 7.5, 5 mM MgCl2, 0.2 mM CaCl2, 20 μg/ml phosphatidylserine, and 2 μg/ml diolein) to which 1 μCi [γ-^32P]ATP was added. Reactions were analyzed by SDS-PAGE.

[5] = least-squares fit to Hill equation, 2 μM actin, FIG. 8B
[6] = least-squares fit to Hill equation, 2 μM F-actin, FIG. 7C
[7] = second experiment, Hill equation

EC50 ([1]; 2 μM actin, FIG. 8B, read-out: half maximal cross-linking): 260 nM
Kd ([1]; least-squares fit to Hill equation, 2 μM actin, FIG. 8B, read-out: Kd (cross-linked actin filaments versus free rAFAP-110)): 260 nM
direct binding to actin filaments ([3]; 150,000×g for 1 h, FIG. 7A): bind to actin filaments directly
rAFAP-110 bound per one mole of actin in filaments ([3]; FIG. 7C): up to 1.7 mol
BMAX [3, 6]: 4.2 µM
Kd [3, 6]: 290 nM
BMAX [3, 7]: 1.5 µM
Kd [3, 7]: 240 nM
phosphorylation by PKCα in vitro [4]: phosphorylates
B1: rAFAP-110: Recombinant AFAP-110 purified after production as a GST bacterial fusion protein, using the PreScission Protease system (protein, UniProt Q90738 1-729, looked up)
Actin filament-associated …: MEELIVELRLFLELLDHEYLTSTVREKKAVITNILLRIQSSKGFEIKEHVQKPEVANSLPAPPQMPLPEIPQQWLPPDNGPPPLPTSSLPEGYYEEAVPVSPGKAPEYITSNYDSDAMSSSYESYDEEEEDGKGKKMRHQWPSEEASMDLVKDAKICAFLLRKKRFGQWTKLLCVIKENKLLCYKSSKDQQPQMELLLNDCSITYIPKDSKKKKHELKISHQGADALVLAVQSKEQAEQWLKVIKDVCSNCTGTVDSDGPLSSSPVHKTELEKKLSSERPSSDGEGAVENGITTVCNGKEQVKRKKSSKTEAKGTVTKVTGKKITKIIGLGKKKPSTDEQTSSAEEDVPTCGYLNVLSNNRWRERWCRVKDNKLIFHKDRTDLKTHIVSIPLRGCEVIPGLDSKHPLTFRLLRNGQEVAVLEASSSEDMGRWIGMLLAETGSSTDPGALHYDYIDVEMTASVIQAAKQTFCFMNRRVISTNPYRGSTANGYACPSGMALHYDDVPCINGSFKGKKPPATANGITGKVRTLNSQPKKPESVSCVKRTASNAEQYKYGKNRVEAVAKRLQSKEEELLKRKEALRNRLAQLRKERKDLRAAIEVNAGRKTQVILEDKLKKLEEECKTKEAERVNLELELTEVKESLKKALAGGITLGLAIEPKSGTSSPQSPIFKHRTLENSPISSCDTSDTECSIPVNSAAALKRPPSSNNSPCRGHVLRKAKEWEMKNGT
actin cross-linked and sedimented at saturation ([1]; 1.63 μM/2.0 μM total actin): 81.5%
sedimentation of actin filaments at low speed ([1]; 20,800×g, FIG. 8A): efficiently sedimented
BMAX (cross-linked actin filaments) [1, 5]: 1.63 µM
n (Hill equation, cross-linking) [1, 5]: 1.7
confocal fluorescence pattern of actin filaments ([2]; FIG. 9A, rAFAP-110 at 1.3 μM): organized into a lacy pattern of swollen and interconnected fluorescent tubes
organization of actin filaments at low concentration ([2]; α-actinin 0.0625 μM, rAFAP-110 0.105 μM, FIG. 9B): did not change the organization of actin filaments
organization of actin filaments at high concentration ([2]; α-actinin 1.25 μM, rAFAP-110 2.1 μM, FIG. 9B): caused some aggregation of actin filaments into large branched structures
